Experiment: soluble on expression in E. coli; label from the status in PepcDB or PDB records

Row | Sequence | soluble on expression in E. coli
1 | MWHIFERFVNEYERWFLVHRFAYLSELQAVKCLLPEGRGVEIGVGTGRFAVPLKIKIGVEPSERMAEIARKRGVFVLKGTAENLPLKDESFDFALMVTTICFVDDPERALKEAYRILKKGGYLIVGIVDRESFLGREYEKNKEKSVFYKNARFFSTEELMDLMRKAGFEEFKVVQTLFKHPSELSEIEPVKEGYGEGAFVVIRGTKK | soluble
2 | MWINKVIKKRFETDIVQHVHIAKGTAMFQGVRLAVRCFVVDGVLIDTGAKSMENEFTSFFQQQDIDQVVITHFHEDHTGCAAFLQRSMGLPIYMNEPMIEYCRQKADYPLYRKIFWGKRDPFAAKPIGATFSSRNATWDVIPTPGHAIDHVVFLNRETGQLFSGDLYCQEKTKVILREEDIPTIIASLQHVLTYDFGDVFCAHAGYLPNGREALQRKLDYLLELQGTIIDLYEKGTPPKQIQALLFPKKYPIIFFSGGEWDSLHIVRSVIRDYEAKQASLEHHHHHH | soluble
3 | MWNETVEHENAGNGWAAGESSFMTDRKPDSKATTLGERLPVPVTISNLIEHFSAQDDKYVVGTFRFATVLTVGIVKDISQDGTTYTYDLCDPNNTEMEYRTLKYDNEGSTFDHSSIVEGTRVRAIGKLKGFDGNNTIMLFNITPVEDDKDFTIFELEAEAARLFFQKNVSEKLKSVDSDGFQGMLAPPKSRMSQTSHQSSQGSDTKERLYAQPQKVMTGANQGDVLRERITAVLMAVPEGSRDEGRHVSWIAEQIQETNISIVRKCVGEMVENGLVYTTVDEETVSAI | not soluble
4 | MWVEQIEKILTPRTPLILRCRNVPIPLIVSVFVECDMFDESLPISRAMKCLFVSVLCLSVGATAADAKPKIKVVNKTYSVNATTAQDLIQQMDARGPKGFWAYTDWYVKWTGGCDLSVSITYTMPKHKNEAKLDPELRKSWQSFVTALRKHEELHGAHGIQAAQEIEKSKCADGDSVIRKWSEQDKVLDQRTDHGKKDGVVLK | not soluble
5 | MYADRDLPGAGGLAVRVIPCLDVDDGRVVKGVNFENLRDAGDPVELAAVYDAEGADELTFLDVTASSSGRATMLEVVRRTAEQVFIPLTVGGGVRTVADVDSLLRAGADKVAVNTAAIACPDLLADMARQFGSQCIVLSVDARTVPVGSAPTPSGWEVTTHGGRRGTGMDAVQWAARGADLGVGEILLNSMDADGTKAGFDLALLRAVRAAVTVPVIASGGAGAVEHFAPAVAAGADAVLAASVFHFRELTIGQVKAALAAEGITVR | not soluble
6 | MYAYDIYEPIGRKDGEIFPVIFALHGFGGDELDMAGRLELLMDRFVVVSMRGDVEYGPTYGFYHMVTEGDPNAREVDYTSLRVAEFIDEVCNDYVSIDKNQIFLVGFDQGAVLTISIMQSYGGQYKAAALLSGRLPHYLEERPANLMLKDKRIFIGHGIEDAVIQIAEAEEIAQFFQKMGCNVEKHSYFVGHNVNEAEEDDLYSWFESFLP | not soluble
7 | MYDSAPSDPVPFARLRFRDLQLLREIAAARSLTAVAERRGLTQPALSRTLRDIEAELGAQVFSRERGARLAPTAVGRHILARVDLLMADAGALHSELRAFEEGRGAHLRLGVIPFVSNALMQEVLKTLTGEPLRMSVSTFEGATDQLVLALRRQELDIVIGRLSADAGADTLAQEGLFSQTASIVMSEALYERRASLTLASLHGHPWVLPPASSPTRMAFVEAFVSRNAVAPVARIETTSARLVHSAISSNMASLGLLPLDIGQELERWGGVRCKAFPVPFRMPTVGLIVLAERRARAMNRVVRDVLHRCIARVAAYA | not soluble
8 | MYEIKGHHHISMVTKNANENNHFYKNVLGLRRVKMTVNQDDPSMYHLFYGDKTGSPGTELSFFEIPLVGRTYRGTNAITRIGLLVPSEDSLHYWKERFEKFDVKHSEMTTYANRPALQFEDAEGLRLVLLVSNGEKVEHWETWEKSEVPAKHQIQGMGSVELTVRRLDKMASTLTEIFGYTEVSRNDQEAIFQSIKGEAFGEIVVKYLDGPTEKPGRGSIHHLAIRVKNDAELAYWEEQVKQRGFHSSGIIDRFYFKSLYFRESNGILFEIATDGPGFTVDGDVEHLGEKLDLPPFLEDQRAEIEANLAPIEEK | soluble
9 | MYEPKPEHRFTFGLWTVGNVGRDPFGDAVRERLDPVYVVHKLAELGAYGVNLHDEDLIPRGTPPQERDQIVRRFKKALDETGLKVPMVTANLFSDPAFKDGAFTSPDPWVRAYALRKSLETMDLGAELGAEIYVVWPGREGAEVEATGKARKVWDWVREALNFMAAYAEDQGYGYRFALEPKPNEPRGDIYFATVGSMLAFIHTLDRPERFGLNPEFAHETMAGLNFVHAVAQALDAGKLFHIDLNDQRMSRFDQDLRFGSENLKAAFFLVDLLESSGYQGPRHFDAHALRTEDEEGVWAFARGCMRTYLILKERAEAFREDPEVKELLAAYYQEDPAALALLGPYSREKAEALKRAELPLEAKRRRGYALERLDQLAVEYLLGVRG | soluble
10 | MYEYCRKRGLYPDAESYPWKSNAHYWLVTNLYQNMRANALADAELRRKAADELTCMTARINRGETIPEPVKQLPVMGGRPLNRAQALAKIAEIKAKFGLKGASVLEHHHHHH | not soluble
11 | MYIAHIFRVSVAHLQFFNGPTTKNWAEPYQSIETSDTQSHITWQALIGRPFIFVEKKFLLFLSKKFSLVGNFPIPSNFADQFSSVSIPSESLPFSRKSFSDHHPWLPLISMESSWE | not soluble
12 | MYKYISNELPQFFENGMLRFTQPGQFNDPFELLPRYVDFMGENTKQYILDNIEVLVKEIPQNEPWYIKLIPMSIKVFAIRLLLTSNHKRVKKVTDEIDAFGLSVANGQYRDIIDQSYGILCLSAKEDSLLMWSHYGNSHKGYVIEFDTSHKFFNQVIPNKKTGGVLDYAGTPLKVTYTKRRKTILFWQKAMSEVFLTKGSDWEYEQEYRMVLPLETSTEVVNGNIHLFHIPFDAVKSIIFGAKCEDEFIQNSIAKIHHWDSKHIDFQLFQFNLSDNDFELVRKKI | soluble
13 | MYLDFYGLHAHPFQLTPDPAFFFGANGHTRAKSYLMFGLSQGEGFVVVTGDVGAGKTTLLSHMLRSLSDRSIRVARLSTTQLSADDTARVVARAFGLAEPAHPSKGAWLEAIEVFLTQVRAAGERCVLIVDEVQNMGFAALEELRMLGNLGIDDGHSALQTILVGQPQFRNTLAGPSLDQLRQRIVASCHLGPIEPEEVGHYMRYRLTQAGWRGDPSFEEAVFPAVYRHSGGLPRRINILCSRLLLAGFLQERHDLRAQDVEEVAAELEAEAGEVIGVAGETRAGARLDGRFIDAGSLADLEERVLGIEERLRKVDLVVRRGLLNFSDFVSELNAVWKGRPLEHHHHHH | not soluble
14 | MYLHMAIAAPRILCPDMDSDTTKKWIFREPSRTDGDDVYALITECPPLDINSSYCNFLQATHFSKTCVLAEKDGDLAGFISGYQEPDEPNTLFIWQVAVSPRYRGKGLAFSMLTTLLERKNLLHIEFIETTITKANNASWSLFKKIDAQYGNQGQVTTFLDKESHFKGKHDTEYLYRIPLKSSQK | not soluble
15 | MYLLEINVFEGLNKKELSMIEVAHAILEQHADVMDFSDLVNQIQNYLGKSDSEIRDQLAQFYTDLNIDGSFISLGDNRWGLRSWYPIDSIDEEVTHGLEEDEEDAPRRRKRKKVNAFITNPNDEDVIDYNDDDPEDAELTNDDEEDILYDDEEDEDEEIKAYNSDLQEIGADSDDDEEDIPQIEEDLTIIDDDDVEDEDDFDDEYSEE | not soluble
16 | MYLLLSLALVCTAAASSGYGIPANDDPSYSPPANDNPSYSAPANSDNRLYYDYSSRSSSSSSDSSEERECRKLREFDLPSELKSIGVKAKFSEMERRGKTYTTISCPSNTKTYAIIADKSGSNVSQGDITIQDAVLLATGVNIDVVGRCRGRRTTVVANNGDEVKIKTVVCVELSTSPDKY | not soluble
17 | MYPNQQFMRGKVRDLPDSGVIYLNRIKPIAQEFQQETTAEVEVSVQNIPRHGKSPSSFEKYNSVEERSPTRLPMITTSTTAPKILIEKKVNQQKQEFQKSKQSQLSVPEEAELDRLLDDLLKSDNIPKVILDFFFKMKMIQNFQKTLQLAKIGRRSSKRHVGAYKPKVISFDGTARVNKQHARAHASPTSIGLNPIKTYAYGSSSSQNRGPDFDPWERMGQKALCNLLGTLLLELERIWEHMGGFIDTESPAFFVNETLAQQHIACVFCNKLFNMPQTWEKAQNALNLAGCSNLGGAKKACNGIVNNANLTESFPNMLPHNVQLKDLACKKYCKEQ | soluble
18 | MYQVITMYGDNEPWWFFDDWQEDIVQEKTFDNLTDAETYYVEVWQKLSQNYTYVNTKPNYLTAFWNDGEERWCEECDEDLQQYFGLALLENHHAVTFENKAEFTTISNHFGKTKFCKRKVI | not soluble
